B1: scFv; the commonest letter at each place (parent)
chain 1: EVKLDETGGGLVQPGRPMKLSCVASGFTFSDYWMNWVRQSPEKGLEWVAQIRNKPYNYETYYSDSVKGRFTISRDDSKSSVYLQMNNLRVEDMGIYYCTGSYYGMDYWGQGTSVTVS
chain 2: DVVMTQTPLSLPVSLGDQASISCRSSQSLVHSNGNTYLRWYLQKPGQSPKVLIYKVSNRFSGVPDRFSGSGSGTDFTLKISRVEAEDLGVYFCSQSTHVPWTFGGGTKLEIK

What was measured:
fluorescein = variants of: B1; assay: Kd (Tite-Seq); settings: with fluorescein; format: scFv 4-4-20, heavy + light
[1] = variants of: B1; assay: yeast surface expression (ratio to wild type); higher = more expressed; settings: format: scFv 4-4-20, heavy + light

Kd (fluorescein)	Variant	yeast surface expression [1]
5.96 µM	chain 1 EVKLDETGGGLVQPGRPMKLSCVASGFTFSDYWMNWVRQSPEKGLEWVAQIRNKPYNYETYYSDSVKGRFTISRDDSKSSVYLQMNNLRVEDMGIYYCTGSWYGEDYWGQGTSVTVS chain 2 DVVMTQTPLSLPVSLGDQASISCRSSQSLVHSNGNTYLRWYLQKPGQSPKVLIYKVSNRFSGVPDRFSGSGSGTDFTLKISRVEAEDLGVYFCSQSTHVPWTFGGGTKLEIK [chain 1 Y102W M105E]	1.02
2.88 µM	chain 1 EVKLDETGGGLVQPGRPMKLSCVASGFTFSDYWMNWVRQSPEKGLEWVAQIRNKPYNYETYYSDSVKGRFTISRDDSKSSVYLQMNNLRVEDMGIYYCTGSWWGMDYWGQGTSVTVS chain 2 DVVMTQTPLSLPVSLGDQASISCRSSQSLVHSNGNTYLRWYLQKPGQSPKVLIYKVSNRFSGVPDRFSGSGSGTDFTLKISRVEAEDLGVYFCSQSTHVPWTFGGGTKLEIK [chain 1 Y102W Y103W]	0.645
0.00158 µM	chain 1 EVKLDETGGGLVQPGRPMKLSCVASGFTFSDYWMNWVRQSPEKGLEWVAQIRNKPYNYETYYSDSVKGRFTISRDDSKSSVYLQMNNLRVEDMGIYYCTGSWYGMDFWGQGTSVTVS chain 2 DVVMTQTPLSLPVSLGDQASISCRSSQSLVHSNGNTYLRWYLQKPGQSPKVLIYKVSNRFSGVPDRFSGSGSGTDFTLKISRVEAEDLGVYFCSQSTHVPWTFGGGTKLEIK [chain 1 Y102W Y107F]	0.61
≥ 10 µM	chain 1 EVKLDETGGGLVQPGRPMKLSCVASGFTFSDYWMNWVRQSPEKGLEWVAQIRNKPYNYETYYSDSVKGRFTISRDDSKSSVYLQMNNLRVEDMGIYYCTGSWYGMDGWGQGTSVTVS chain 2 DVVMTQTPLSLPVSLGDQASISCRSSQSLVHSNGNTYLRWYLQKPGQSPKVLIYKVSNRFSGVPDRFSGSGSGTDFTLKISRVEAEDLGVYFCSQSTHVPWTFGGGTKLEIK [chain 1 Y102W Y107G]	0.493
0.0944 µM	chain 1 EVKLDETGGGLVQPGRPMKLSCVASGFTFSDYWMNWVRQSPEKGLEWVAQIRNKPYNYETYYSDSVKGRFTISRDDSKSSVYLQMNNLRVEDMGIYYCTGSWYGMDSWGQGTSVTVS chain 2 DVVMTQTPLSLPVSLGDQASISCRSSQSLVHSNGNTYLRWYLQKPGQSPKVLIYKVSNRFSGVPDRFSGSGSGTDFTLKISRVEAEDLGVYFCSQSTHVPWTFGGGTKLEIK [chain 1 Y102W Y107S]	0.557

Second part, the variant before the results:

Variant	Kd (fluorescein)	yeast surface expression [1]
chain 1 EVKLDETGGGLVQPGRPMKLSCVASGFTFSDYWMNWVRQSPEKGLEWVAQIRNKPYNYETYYSDSVKGRFTISRDDSKSSVYLQMNNLRVEDMGIYYCTGSVGGMDFWGQGTSVTVS chain 2 DVVMTQTPLSLPVSLGDQASISCRSSQSLVHSNGNTYLRWYLQKPGQSPKVLIYKVSNRFSGVPDRFSGSGSGTDFTLKISRVEAEDLGVYFCSQSTHVPWTFGGGTKLEIK [chain 1 Y102V Y103G Y107F]	6.27 µM	1.12
chain 1 EVKLDETGGGLVQPGRPMKLSCVASGFTFSDYWMNWVRQSPEKGLEWVAQIRNKPYNYETYYSDSVKGRFTISRDDSKSSVYLQMNNLRVEDMGIYYCTGSVYGMDDWGQGTSVTVS chain 2 DVVMTQTPLSLPVSLGDQASISCRSSQSLVHSNGNTYLRWYLQKPGQSPKVLIYKVSNRFSGVPDRFSGSGSGTDFTLKISRVEAEDLGVYFCSQSTHVPWTFGGGTKLEIK [chain 1 Y102V Y107D]	≥ 10 µM	0.452
chain 1 EVKLDETGGGLVQPGRPMKLSCVASGFTFSDYWMNWVRQSPEKGLEWVAQIRNKPYNYETYYSDSVKGRFTISRDDSKSSVYLQMNNLRVEDMGIYYCTGSVYGMDFWGQGTSVTVS chain 2 DVVMTQTPLSLPVSLGDQASISCRSSQSLVHSNGNTYLRWYLQKPGQSPKVLIYKVSNRFSGVPDRFSGSGSGTDFTLKISRVEAEDLGVYFCSQSTHVPWTFGGGTKLEIK [chain 1 Y102V Y107F]	0.00226 µM	0.877
chain 1 EVKLDETGGGLVQPGRPMKLSCVASGFTFSDYWMNWVRQSPEKGLEWVAQIRNKPYNYETYYSDSVKGRFTISRDDSKSSVYLQMNNLRVEDMGIYYCTGSWYGMDYWGQGTSVTVS chain 2 DVVMTQTPLSLPVSLGDQASISCRSSQSLVHSNGNTYLRWYLQKPGQSPKVLIYKVSNRFSGVPDRFSGSGSGTDFTLKISRVEAEDLGVYFCSQSTHVPWTFGGGTKLEIK [chain 1 Y102W]	0.00361 µM	0.638
chain 1 EVKLDETGGGLVQPGRPMKLSCVASGFTFSDYWMNWVRQSPEKGLEWVAQIRNKPYNYETYYSDSVKGRFTISRDDSKSSVYLQMNNLRVEDMGIYYCTGSWYHMDYWIQGTSVTVS chain 2 DVVMTQTPLSLPVSLGDQASISCRSSQSLVHSNGNTYLRWYLQKPGQSPKVLIYKVSNRFSGVPDRFSGSGSGTDFTLKISRVEAEDLGVYFCSQSTHVPWTFGGGTKLEIK [chain 1 Y102W G104H G109I]	≥ 10 µM	0.0981
chain 1 EVKLDETGGGLVQPGRPMKLSCVASGFTFSDYWMNWVRQSPEKGLEWVAQIRNKPYNYETYYSDSVKGRFTISRDDSKSSVYLQMNNLRVEDMGIYYCTGSWYGMDYWPQGTSVTVS chain 2 DVVMTQTPLSLPVSLGDQASISCRSSQSLVHSNGNTYLRWYLQKPGQSPKVLIYKVSNRFSGVPDRFSGSGSGTDFTLKISRVEAEDLGVYFCSQSTHVPWTFGGGTKLEIK [chain 1 Y102W G109P]	≥ 10 µM	0.245
chain 1 EVKLDETGGGLVQPGRPMKLSCVASGFTFSDYWMNWVRQSPEKGLEWVAQIRNKPYNYETYYSDSVKGRFTISRDDSKSSVYLQMNNLRVEDMGIYYCTGSWYGMDYWVQGTSVTVS chain 2 DVVMTQTPLSLPVSLGDQASISCRSSQSLVHSNGNTYLRWYLQKPGQSPKVLIYKVSNRFSGVPDRFSGSGSGTDFTLKISRVEAEDLGVYFCSQSTHVPWTFGGGTKLEIK [chain 1 Y102W G109V]	≥ 10 µM	0.19
